From patent publication US20240327502A1 (Merck Sharp & Dohme, published 2024)
Read-outs that look alike come from different tables or passages of the source.

Experiments:
[1] = target: T1, F protein of hMPV A virus (human metapneumovirus subtype A); assay: cell-based or functional assay
[2] = target: T2, F protein of hMPV B virus (human metapneumovirus subtype B); assay: cell-based or functional assay
[3] = target: T1, F protein of hMPV A virus; assay: cell-based or functional assay; remark: listed apart in the source
[4] = target: T2, F protein of hMPV B virus; assay: cell-based or functional assay; remark: listed apart in the source
[5] = target: F protein of RSV B/Washington virus (respiratory syncytial virus B, …); assay: cell-based or functional assay
D296K = target: T3, D296K; assay: ELISA; Ni-NTA plate coated with Expi293 supernatant containing the His-tagged antigen; antibody titrated; OD450
T3 construct: also called unprocessed hMPV PreF D296K

[6] = target: T4, unprocessed hMPV PreF trimeric antigen (human metapneumovirus strain B2); assay: as above
T4 construct: also called unprocessed hMPV WT PreF trimer; hMPV WT trimer

T143K [7] = target: T5, T143K; assay: as above
T5 construct: also called unprocessed hMPV PreF T143K

N135T G139N Y233N [8] = target: T6, N135T G139N Y233N; assay: as above
T6 construct: also called unprocessed hMPV PreF N135T/G139N/Y233N

T61A, S175R, A185D = target: T7, T61A, S175R, A185D; assay: as above
T7 construct: also called unprocessed hMPV PreF T61A/S175R/A185D

K312Q = target: T8, K312Q; assay: as above
T8 construct: also called unprocessed hMPV PreF K312Q

[9] = target: T9, F protein of hMPV A MARM virus K138Q (human metapneumovirus subtype A); assay: cell-based or functional assay
[10] = target: T10, F protein of hMPV A MARM virus G264R/Q434H (human metapneumovirus subtype A); assay: cell-based or functional assay
[11] = target: T1, F protein of hMPV A virus; assay: cell-based or functional assay; remark: listed apart in the source
[12] = target: T11, F protein of hMPV A MARM virus V231A/G264R (human metapneumovirus subtype A); assay: cell-based or functional assay
[13] = target: T9, F protein of hMPV A MARM virus K138Q; assay: cell-based or functional assay; remark: listed apart in the source
[14] = target: T10, F protein of hMPV A MARM virus …; assay: cell-based or functional assay; remark: listed apart in the source
[15] = target: T11, F protein of hMPV A MARM virus …; assay: cell-based or functional assay; remark: listed apart in the source
[16] = target: T4, unprocessed hMPV PreF trimeric antigen; assay: ELISA; Ni-NTA plate coated with Expi293 supernatant containing the His-tagged antigen; antibody titrated; OD450; remark: listed apart in the source
D414K = target: T12, D414K; assay: as above
T12 construct: also called unprocessed hMPV PreF D414K

[17] = target: T4, unprocessed hMPV PreF trimeric antigen; assay: as above; remark: listed apart in the source
T143K [18] = target: T5, T143K; assay: as above; remark: listed apart in the source
N135T G139N Y233N [19] = target: T6, N135T G139N Y233N; assay: as above; remark: listed apart in the source

B1: M8C10 (antibody, V domains shown)
VH: QVQLVESGGGVVQPGRSLRLSCAASGFTFTTYTMHWVRQAPGKGLEWVALISSDGNNKYYADSVKGRFTISRDNSKNTLYLQMSSLRAEDTAVYYCARGYYSGGDAFDVWGQGTMVTVSS
VL: DIQMTQSPSTLSASVGDRVTITCRASQTITIWLAWYQQKPGKAPKLLIYDAVSLESGVPSRFRGSGSGTDFTLTISSLQPDDFATYYCQQYNNYPYTFGQGTKLEIKR
**Q.** Which “PRNT IC50” value [1] does the source give for B1 here?
**A.** Its value is 0.37 µg/mL.

**Q.** What about the “PRNT IC50” value [2] of the same binder?
**A.** The value was 0.66 µg/mL.

**Q.** What about the “virus neutralization IC50, MPV strain A1” value [3] of the same binder?
**A.** The value was 371 nM.

**Q.** And the “virus neutralization IC50, MPV strain B2” value [4]?
**A.** The value was 660 nM.

B2: M1C7 (antibody, V domains shown)
VH: QVQLVESGGGLVQPGRSLRLSCAASGFTFSSYAMHWVRQAPGKGLEWVAIITYDGSGKYYADSLEGRITISRDDPKSMLYLHMRSLTAEDTAVYYCVKSGSFSSAFWLEDWGQGTLVTVSS
VL: EIVLTQSPATLSLSPGERATLSCRASQSISNFVAWYQQKPGQAPRLLIYDASNGATGTPARFSGSGSGTDFTLTISSLEPEDFAVYYCQQRSTWTFGQGTKVEIKR
**Q.** B2 was tested. Which “PRNT IC50” value [5] did it give?
**A.** The value was 1.1 µg/mL.

**Q.** What about the “PRNT IC50” value [1] of the same binder?
**A.** Its value is 0.0083 µg/mL.

**Q.** What about the “PRNT IC50” value [2] of the same binder?
**A.** Its value is 0.0085 µg/mL.

B3: M2A05 (antibody, V domains shown)
VH: QITLKESGPTLVKPTQTLTLTCTVSGFSLSANSVGVAWFRQPPGKAPEWLGVIYWDDDKRFSPSLKTRLSITKDASTSQVVLRLTNVSPLDTATYYCVRKHYDLLQWGQGAPVTVSS
VL: EIVLTQSPGTLSLSPGEGATLSCRASRSVNSDYIAWYQHKPGLAPRLLIYAASTRATDIPDRFRADVSGTDFTLTIDRLEPDDFAVYYCQQYGSAVWTFGQGTRVEVK
notes: IgG
**Q.** Which results are given for B3?
**A.** EC50 (read off the curve) (D296K): ~0.07 µg/mL; EC50 (read off the curve) [6]: ~0.004 µg/mL; EC50 (read off the curve) (T143K [7]): ~0.003 µg/mL; EC50 (read off the curve) (N135T G139N Y233N [8]): ~0.003 µg/mL; EC50 (read off the curve) (T61A, S175R, A185D): ~0.004 µg/mL; EC50 (read off the curve) (K312Q): ~0.003 µg/mL; PRNT IC50 [1]: > 10 µg/mL; PRNT IC50 [2]: 0.0657 µg/mL

B4: M2B6 (antibody, V domains shown)
VH: QVQLQESGPGLVKPSETLSLTCSVSGASIGGYYWGWIRQPPGKGLEWLGYIYYSGRTVYSPSLRGRLALSLDMSRQQLSLRLRSVAAADTAVYYCASLTITPGWFDSWGPGTLVTVSS
VL: QSVLTQPPSVSGAPGQRVTISCTGSSSNIGAGYDVHWYQQFPGSAPKLLIYGNTKRPSGVPDRFSGSTSGSSASLAITGLQTEDEAEYYCQSYERNLDGALFGGGTKLSVL
**Q.** With B4 as the binder, how does the “PRNT IC50” value [5] read?
**A.** The value was 0.0092 µg/mL.

**Q.** What about the “PRNT IC50” value [1] of the same binder?
**A.** The value was 0.044 µg/mL.

**Q.** And the “PRNT IC50” value [2]?
**A.** The value was 0.0237 µg/mL.

B5: M4B06 (antibody, V domains shown)
VH: EVQLLESGGGFVQPGGSLRLSCVVTGFTFSNYAMCWVRQAPGKGPEWVSGIGGSVGTTYYADSVKGRFTISRDNSKNTLYLQMSGLRAEDTARYYCAKVPSFFVFEDGFDMWGQGTVVTVSS
VL: QSVLTQPPSASGNPGQRVTISCYGSGSNIGNNYVHWFRQLPGTAPRLLIYNTDILVPGVPDRFSGSESGTSASLAISGLQSGDEADYFCAAWDDTLNGYVFGPGTTVTVL
**Q.** What does the source list for B5?
**A.** PRNT IC50 [1]: 0.0035 µg/mL; PRNT IC50 [2]: 0.0022 µg/mL; IC50, hMPV plaque reduction neutralization [9]: 0.49 µg/mL; IC50, hMPV plaque reduction neutralization [10]: 0.7 µg/mL; IC50, hMPV plaque reduction neutralization [11]: 0.0103 µg/mL; IC50, hMPV plaque reduction neutralization [12]: 0.524 µg/mL; fold reduction of neutralization potency against the MARM virus [13]: 49 fold; fold reduction of neutralization potency against the MARM virus [14]: 70 fold; fold reduction of neutralization potency against the MARM virus [15]: 52 fold

B6: M4B06 Fab (Fab, V domains shown)
VH: B5 VH
VL: B5 VL
**Q.** Which “IC50, hMPV plaque reduction neutralization” value [11] does the source give for B6 here?
**A.** The value was 0.076 µg/mL.

B7: M1A04 (antibody, V domains shown)
VH: EVQLVESGGGLVRPGGSLRLSCAASGFNVRNYYMSWVRQAPGKGLEWISVIYGGGTTFYAGSVKGRFTISRDDSKSTLFLQMNSLRADDTAVYYCARDPGTVMSTENLQGMDVWGQGTTVTVSS
VL: DIQMTQSPSSLSASVGDRVTITCRASQTIRSYLNWYQQKPGKAPNLLIYAATSLQSGVPSRFSGSGSGTDFTLTISSLQPEDSATYYCQQSFSTLYSFGQGTRLEIK
notes: IgG
**Q.** Which results are given for B7?
**A.** EC50 (read off the curve) [16]: ~0.005 µg/mL; binding result (D414K): binds; PRNT IC50 [1]: 0.0872 µg/mL; PRNT IC50 [2]: 0.128 µg/mL

B8: M3C06 (antibody, V domains shown)
VH: QVQLVQSGAEVKKPGSSVKVSCKAYGGTLSNYAISWVRQAPGQGLHWMGRIIPVMNVANYADNFQGRVTITADKSTSTAYMELSSLRSEDAAIYYCATARGLGSLEGGDAFDVWGQGTMLTVSS
VL: DIVMTQSPDSVAVSLGERATISCKSSLSLLYSSNNKNYLVWYQQKPGQPPKLLFYWASTRESGVPDRFSASGSGTDFTLTISSLQAEDVAVYYCQQYYSTPITFGQGTRLEIR
notes: IgG
**Q.** With B8 as the binder, how does the “EC50 (read off the curve)” value [17] read?
**A.** Its value is roughly 0.009 µg/mL.

**Q.** Does B8 bind (T143K [18])?
**A.** Result: no binding (tested: about 3000 ng/mL)

**Q.** Does B8 bind (N135T G139N Y233N [19])?
**A.** Result: binds

**Q.** And the “PRNT IC50” value [1]?
**A.** The value was greater than 10 µg/mL.

**Q.** And the “PRNT IC50” value [2]?
**A.** The value was 0.0617 µg/mL.

B9: M4A10 (antibody, V domains shown)
VH: QVQLVQSGAEVKKPGASVKVSCKASGYTFNGHYLHWVRQAPGQGLEWMGWINPNSGGTDYAQRFQGRVTMTRGTSISTAYMELSRLTSDDTAVYFCARDNFGFWSASSGRHNWLDSWGQGTLVIVSS
VL: NFMLTQPHSVSESPGKTVTISCTRSTGNIASNYVQWYQQRPGSSPTTVIYEDNQRPSAVPDRFSGSIDSSSNSASLTVSGLRTEDEADYYCQSYDSGHHVVFGGGTKLTVL
notes: IgG
**Q.** With B9 as the binder, how does the “EC50 (read off the curve)” value [17] read?
**A.** The value was roughly 0.006 µg/mL.

**Q.** What about the “EC50 (read off the curve)” value (T143K [18]) of the same binder?
**A.** The value was roughly 0.002 µg/mL.

**Q.** Does B9 bind (N135T G139N Y233N [19])?
**A.** Result: binds

**Q.** And the “PRNT IC50” value [1]?
**A.** Its value is greater than 10 µg/mL.

**Q.** And the “PRNT IC50” value [2]?
**A.** The value was 0.0301 µg/mL.
